The text below walks through data of paper PMC6007000 (Nature genetics, 2017).

In experiment [1] the target is BAF45c (residues 254–368), PHD1-2 region of DPF3 (Homo sapiens, UniProt Q92784). Put plainly: Isothermal titration calorimetry of H3 tail peptides with DPF3. The class given is binding.
Experiment [2] deals with PHD1-2 region of human BAF45c (DPF3), residues 254–368 (human) (UniProt Q92784). Briefly: ITC. For orientation: Isothermal titration calorimetry measures the heat released or taken up as one component is titrated into another.
PHD1-2 region of human BAF45c (DPF3), residues 254–368 (human), sequence (Q92784 254-368): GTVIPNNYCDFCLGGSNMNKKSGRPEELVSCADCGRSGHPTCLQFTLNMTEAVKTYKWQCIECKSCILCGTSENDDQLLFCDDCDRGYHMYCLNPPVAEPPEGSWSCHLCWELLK

Non-standard residues stand in square brackets, D forms with d. Residues, ends and D or L forms follow the SMILES beside them. No end group written: not given here. Lys(Me3) = C[N+](C)(C)CCCC[C@H](N)C(=O)O

What is called Kd is the equilibrium constant for the complex coming apart. High values mean a looser complex, low ones a tighter complex.

BAF45c (residues 254–368), PHD1-2 region of DPF3, sequence (Q92784 254-368): as above

`CC(=O)NCCCC[C@H](NC(=O)CNC(=O)CNC(=O)[C@@H](NC(=O)[C@H](CO)NC(=O)[C@H](CCCCN)NC(=O)[C@H](CCCNC(=N)N)NC(=O)[C@H](C)NC(=O)[C@H](CCCNC(=N)N)NC(=O)[C@@H](NC(=O)[C@H](CCC(N)=O)NC(=O)[C@H](CCCC[N+](C)(C)C)NC(=O)[C@@H](NC(=O)[C@H](CCCNC(=N)N)NC(=O)[C@H](C)N)[C@@H](C)O)[C@@H](C)O)[C@@H](C)O)C(=O)N[C@@H](C)C(=O)N1CCC[C@H]1C(=O)N[C@@H](CCCNC(=N)N)C(=O)N[C@@H](CCCCN)C(=O)O` [H3K4me3/K14ac] (H-ART[Lys(Me3)]QTRARKSTGGK(Ac)APRK-OH): in experiment [1], binding was characterised by a dissociation constant (Kd) of 115 µM. ARTKQTRARKSTGGK(Ac)APRK [H3K4me0/K14ac]: the Kd in experiment [1] came out at 7.8 µM. Compared with the last compound, the Kd is about 15-fold lower. As for “H3K4me1K14Ac peptide (H3 tail, H3K4me1 and H3K14ac)”, the Kd in experiment [2] was 20 µM.

Take “H3K4me3K14Ac peptide (H3 tail, H3K4me3 and H3K14ac)”: the Kd in experiment [2] came out at 115 µM. Regarding “H3K14Ac peptide (H3 tail, H3K4me0 and H3K14ac)”, the Kd in experiment [2] was 7.8 µM.
